Measured values as given in US9513287.

Target: Shiga toxin 2f (Stx2f) holotoxin (Escherichia coli)

B1: monoclonal antibody Stx2f-1 (antibody, V domains shown)
VH: QVQLQQSGPEVVRPGVSVKISCKGSGYTFTDYAIHWVKQSHAKSLEWIGFISTYNGNPNYNKEFKGKATVTVDKSSSTAYLELARLTSEDSAIYFCARDFYGSSSWFAYWGQGTLVTVSA
VL: DIVLTQTPASLAVSLGQRATISCRASESVDSYGDDFMHWYQQKPGQPPKLLIYRVSNLESGIPVRFSGSGSRTDFTLTINPVEADDDATYYCQQSNENPYTFGGGTKLEIK
Kd: 516 pM
